The target of assay [1] is T1, extracellular domain of human L1CAM (isoform 1) fused to a poly-histidine tag via its carboxy terminus (human, UniProt P32004 20-1120).
T1 construct: Bought (Creative Biomart); also called L1CAM-His; huL1CAM protein
Put plainly: BLI (Octet Red96e), His-tagged human L1CAM on Ni-NTA biosensors, mAb as analyte, 1:1 fit. The protocol:
(§1) Binding to L1CAM in Solution. Affinity to human L1CAM was measured by BLI using an Octet Red96e instrument. […] The data was prepared by reference well subtraction, and response curves were globally fit to a 1:1 Langmuir binding model.
A general note: BLI is a label-free optical method that tracks binding on a fibre tip over time.

For assay [2], the target named is T2, human L1CAM on cells (human, UniProt P32004 20-1257).
T2 construct: Overexpressed on stably transfected HEK293T cells or endogenous on MCF-7 and MDA-MB-231 cells; also called HEK293T-hL1CAM
T2 sequence (P32004 20-1257): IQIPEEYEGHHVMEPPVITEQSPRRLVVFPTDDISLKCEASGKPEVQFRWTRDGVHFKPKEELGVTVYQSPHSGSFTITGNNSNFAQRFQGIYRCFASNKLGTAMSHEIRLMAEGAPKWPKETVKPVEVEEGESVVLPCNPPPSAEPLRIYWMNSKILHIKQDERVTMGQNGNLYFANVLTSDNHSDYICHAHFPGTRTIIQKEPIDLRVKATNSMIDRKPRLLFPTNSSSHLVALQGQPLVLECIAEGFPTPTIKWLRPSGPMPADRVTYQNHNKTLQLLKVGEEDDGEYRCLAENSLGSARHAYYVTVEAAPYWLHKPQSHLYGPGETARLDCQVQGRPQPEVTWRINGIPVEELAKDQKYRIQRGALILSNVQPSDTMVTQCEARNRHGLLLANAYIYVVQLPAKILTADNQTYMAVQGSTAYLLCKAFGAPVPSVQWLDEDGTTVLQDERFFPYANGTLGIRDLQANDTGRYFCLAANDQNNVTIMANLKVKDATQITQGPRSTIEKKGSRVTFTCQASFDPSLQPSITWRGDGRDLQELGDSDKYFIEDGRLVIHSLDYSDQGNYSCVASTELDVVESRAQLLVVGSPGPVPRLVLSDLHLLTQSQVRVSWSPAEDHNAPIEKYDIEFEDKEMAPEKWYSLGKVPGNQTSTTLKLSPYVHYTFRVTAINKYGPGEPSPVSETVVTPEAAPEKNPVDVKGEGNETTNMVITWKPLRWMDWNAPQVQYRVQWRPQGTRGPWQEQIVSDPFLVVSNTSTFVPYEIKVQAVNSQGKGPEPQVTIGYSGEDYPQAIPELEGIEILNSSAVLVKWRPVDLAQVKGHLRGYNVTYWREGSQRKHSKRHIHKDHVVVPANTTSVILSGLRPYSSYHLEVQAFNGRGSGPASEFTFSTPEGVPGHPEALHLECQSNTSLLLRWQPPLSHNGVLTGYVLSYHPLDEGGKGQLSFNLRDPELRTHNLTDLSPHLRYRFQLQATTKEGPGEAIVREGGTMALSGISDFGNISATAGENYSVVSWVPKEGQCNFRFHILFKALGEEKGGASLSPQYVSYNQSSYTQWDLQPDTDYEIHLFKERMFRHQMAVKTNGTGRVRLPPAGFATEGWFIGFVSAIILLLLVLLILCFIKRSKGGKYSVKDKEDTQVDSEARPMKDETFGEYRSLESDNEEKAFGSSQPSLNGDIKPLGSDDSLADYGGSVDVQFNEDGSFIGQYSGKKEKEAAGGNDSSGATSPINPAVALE
Put plainly: summary table; binding to cells with endogenous L1CAM (MCF-7). The protocol:
(§2) Binding to L1CAM on Cells. […] Cells were then incubated with an AlexaFluor 647 goat anti-human Fc secondary antibody. After washing, the stained cells were analyzed by flow cytometry.
(§3) The binding curves for each antibody and cell line normalized to secondary antibody only staining (MFI ratio) are shown in FIGS. 14A-14C. EC50 values were determined by non-linear regression (Table 70). […] It is possible that differences in the conformation and oligomerization of L1CAM, depending on the surface expression level, contributed to the binding pattern. […] An avidity effect due to high levels of L1CAM surface expression may have contributed to the strong binding observed in this experiment.

The target in assay [3] is T3, soluble cynomolgus monkey L1CAM, His-tagged, monomeric (cynomolgus monkey, UniProt A0A2K5URB5 20-1120).
T3 construct: also called cyL1CAM protein; cynomolgus L1CAM-His
Put plainly: BLI, cynomolgus against human L1CAM-His. As for the experimental part:
Cross-reactivity to Cynomolgus Monkey L1CAM. Affinity to cynomolgus L1CAM was measured by BLI using an Octet Red96e instrument. […] The data was prepared by reference well subtraction, and response curves were globally fit to a 1:1 Langmuir binding model.

Assay [4] deals with T2, human L1CAM on cells. Put plainly: flow cytometry, MDA-MB-231 cells, AlexaFluor 647 anti-human Fc secondary. As for the experimental part: as §2, §3
(In flow cytometry, cells or beads pass a laser one at a time.)

In assay [5] the target is T4, human CHL-1 (residues 25-1096 with a C-terminal 10xHis tag) (human, UniProt O00533 25-1096).
T4 construct: range 25-1096; also called L1CAM-2; L1CAM2
T4 sequence: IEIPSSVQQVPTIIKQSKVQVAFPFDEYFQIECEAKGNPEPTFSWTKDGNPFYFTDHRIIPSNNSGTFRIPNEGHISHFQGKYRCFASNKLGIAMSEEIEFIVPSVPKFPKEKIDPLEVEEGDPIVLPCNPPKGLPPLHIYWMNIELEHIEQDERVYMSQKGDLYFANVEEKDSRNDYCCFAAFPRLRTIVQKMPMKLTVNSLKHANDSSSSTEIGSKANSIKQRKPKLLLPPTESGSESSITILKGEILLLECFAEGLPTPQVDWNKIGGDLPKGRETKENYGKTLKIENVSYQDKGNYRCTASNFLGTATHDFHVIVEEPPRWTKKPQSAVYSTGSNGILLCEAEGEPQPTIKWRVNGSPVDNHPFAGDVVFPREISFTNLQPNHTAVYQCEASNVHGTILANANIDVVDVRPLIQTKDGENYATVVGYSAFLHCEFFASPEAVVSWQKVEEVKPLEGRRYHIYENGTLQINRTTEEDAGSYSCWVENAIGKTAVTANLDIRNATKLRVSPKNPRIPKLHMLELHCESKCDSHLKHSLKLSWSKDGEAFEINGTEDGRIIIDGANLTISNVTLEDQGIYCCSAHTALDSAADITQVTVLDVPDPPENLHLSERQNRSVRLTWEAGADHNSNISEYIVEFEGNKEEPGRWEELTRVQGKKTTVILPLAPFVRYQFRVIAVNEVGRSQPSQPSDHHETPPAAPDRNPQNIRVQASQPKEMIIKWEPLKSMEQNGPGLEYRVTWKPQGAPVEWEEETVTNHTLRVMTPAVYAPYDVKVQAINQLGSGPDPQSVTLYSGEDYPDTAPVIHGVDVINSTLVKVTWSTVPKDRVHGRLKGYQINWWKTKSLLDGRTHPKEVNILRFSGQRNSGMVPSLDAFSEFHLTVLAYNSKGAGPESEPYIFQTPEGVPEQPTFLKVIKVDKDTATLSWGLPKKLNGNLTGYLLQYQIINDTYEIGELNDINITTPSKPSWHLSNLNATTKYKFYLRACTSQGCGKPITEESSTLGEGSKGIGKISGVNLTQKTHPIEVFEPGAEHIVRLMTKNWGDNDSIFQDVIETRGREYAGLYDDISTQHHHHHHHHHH
The assay can be described thus: ELISA, plates coated with human CHL-1. The source says:
Selectivity. […] These proteins are other members of the L1 family of cell adhesion proteins and have between 49% and 55% sequence similarity with L1CAM in the extracellular portion. […] Positive control antibodies were included for each homolog. […] Epitope. The extracellular portion of L1CAM contains six immunoglobulin-like (Ig) domains and five fibronectin type III (FN) domains. To narrow down the binding region of the development candidate mAbs, truncated versions of human L1CAM protein (Ig domain, residues 21-605; FN domain, residues 606-1116; each with a C-terminal 6×His tag) were recombinantly produced, followed by a BLI experiment to test binding at 50 and 100 nM. […] 6×His tag is set forth in SEQ ID NO: 316.
(An ELISA detects its analyte on a solid surface through an enzyme-linked reagent.)

The target of assay [6] is T5, soluble mouse L1CAM (monomer), His-tagged (mouse, UniProt P11627 20-1123, limits assumed).
T5 construct: read as mouse
T5 sequence (P11627 20-1123 limits assumed): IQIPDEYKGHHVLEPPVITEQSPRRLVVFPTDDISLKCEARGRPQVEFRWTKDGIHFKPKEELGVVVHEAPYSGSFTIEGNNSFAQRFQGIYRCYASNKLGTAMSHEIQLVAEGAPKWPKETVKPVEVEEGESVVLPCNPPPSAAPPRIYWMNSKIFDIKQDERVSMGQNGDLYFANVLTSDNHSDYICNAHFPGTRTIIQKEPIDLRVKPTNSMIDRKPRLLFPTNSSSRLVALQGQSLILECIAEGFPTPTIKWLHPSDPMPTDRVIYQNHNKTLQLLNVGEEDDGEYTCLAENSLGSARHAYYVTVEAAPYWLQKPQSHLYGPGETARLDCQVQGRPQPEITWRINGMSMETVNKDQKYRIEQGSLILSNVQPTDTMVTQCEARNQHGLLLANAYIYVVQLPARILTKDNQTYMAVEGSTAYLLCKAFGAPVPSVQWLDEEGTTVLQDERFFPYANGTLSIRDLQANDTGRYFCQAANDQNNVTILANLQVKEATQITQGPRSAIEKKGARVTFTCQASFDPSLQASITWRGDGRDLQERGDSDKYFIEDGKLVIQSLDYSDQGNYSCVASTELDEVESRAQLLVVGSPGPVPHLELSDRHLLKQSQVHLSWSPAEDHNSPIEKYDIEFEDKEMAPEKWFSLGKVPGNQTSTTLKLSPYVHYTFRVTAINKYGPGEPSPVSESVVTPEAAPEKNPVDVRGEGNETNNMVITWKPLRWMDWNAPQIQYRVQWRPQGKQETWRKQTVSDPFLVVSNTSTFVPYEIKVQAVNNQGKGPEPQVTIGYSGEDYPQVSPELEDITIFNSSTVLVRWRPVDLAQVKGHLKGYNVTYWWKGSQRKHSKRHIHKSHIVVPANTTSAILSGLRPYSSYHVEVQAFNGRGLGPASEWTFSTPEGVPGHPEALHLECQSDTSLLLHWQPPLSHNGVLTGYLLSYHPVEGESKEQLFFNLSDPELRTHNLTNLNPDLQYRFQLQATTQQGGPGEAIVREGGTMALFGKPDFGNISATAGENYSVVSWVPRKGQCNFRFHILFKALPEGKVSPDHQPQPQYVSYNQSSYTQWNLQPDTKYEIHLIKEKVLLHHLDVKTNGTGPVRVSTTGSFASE
The assay can be described thus: BLI (Octet Red96e), His-tagged mouse L1CAM on Ni-NTA biosensors, mAb as analyte, 1:1 fit. The protocol:
Cross-reactivity to Mouse L1CAM. Affinity to mouse L1CAM was measured by BLI using an Octet Red96e instrument. […] The data was prepared by reference well subtraction, and response curves were globally fit to a 1:1 Langmuir binding model.

In assay [7] the target is T2, human L1CAM on cells. Put plainly: summary table; binding to cells with endogenous L1CAM (MDA-MB-231). As for the experimental part: as §2, §3
For assay [8], the target named is T2, human L1CAM on cells. The assay can be described thus: flow cytometry, HEK293T-hL1CAM cells, AlexaFluor 647 anti-human Fc secondary. As for the experimental part:
as §2, §3

Assay [9] has as its target T1, extracellular domain of human L1CAM …. The assay can be described thus: summary table; binding to soluble human L1CAM (monomer). The protocol:
as §1

T1 sequence (P32004 20-1120): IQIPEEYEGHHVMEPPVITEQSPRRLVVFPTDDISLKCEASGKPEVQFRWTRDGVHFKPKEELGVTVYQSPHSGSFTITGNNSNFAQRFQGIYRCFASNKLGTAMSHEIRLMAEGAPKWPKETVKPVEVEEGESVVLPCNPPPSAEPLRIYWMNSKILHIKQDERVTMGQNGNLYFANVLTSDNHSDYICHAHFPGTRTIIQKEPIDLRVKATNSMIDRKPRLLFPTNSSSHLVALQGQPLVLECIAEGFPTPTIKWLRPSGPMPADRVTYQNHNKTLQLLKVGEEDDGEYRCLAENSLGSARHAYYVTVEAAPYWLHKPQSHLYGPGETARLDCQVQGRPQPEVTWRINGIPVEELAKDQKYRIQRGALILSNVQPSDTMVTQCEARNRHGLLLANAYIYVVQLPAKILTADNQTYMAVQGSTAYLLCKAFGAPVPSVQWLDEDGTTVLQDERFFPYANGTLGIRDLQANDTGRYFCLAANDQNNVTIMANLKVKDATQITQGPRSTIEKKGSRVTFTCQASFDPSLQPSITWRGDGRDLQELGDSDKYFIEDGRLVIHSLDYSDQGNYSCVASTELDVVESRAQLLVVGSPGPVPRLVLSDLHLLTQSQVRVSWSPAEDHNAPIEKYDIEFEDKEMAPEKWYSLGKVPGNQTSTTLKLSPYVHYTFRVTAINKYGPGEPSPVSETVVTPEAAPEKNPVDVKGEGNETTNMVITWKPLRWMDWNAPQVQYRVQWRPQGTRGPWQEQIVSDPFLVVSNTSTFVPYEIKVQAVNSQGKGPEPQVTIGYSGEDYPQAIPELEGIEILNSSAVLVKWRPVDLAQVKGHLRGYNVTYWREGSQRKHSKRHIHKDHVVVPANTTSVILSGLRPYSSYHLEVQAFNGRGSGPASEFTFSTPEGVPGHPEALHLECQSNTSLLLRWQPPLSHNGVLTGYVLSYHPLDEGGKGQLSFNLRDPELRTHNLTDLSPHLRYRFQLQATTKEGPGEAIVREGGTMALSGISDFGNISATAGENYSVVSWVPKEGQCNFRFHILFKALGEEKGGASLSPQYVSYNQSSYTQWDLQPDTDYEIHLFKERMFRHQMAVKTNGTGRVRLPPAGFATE

B1: TDI-Y-005 (antibody, human IgG1, kappa, V domains shown)
VH: EVQMVESGGGLVQPGGSLRLSCAAPGFIFSSYNMNWVRQAPGKGLEWVSYISSSSSTTYYADSVKGRFTISRDNAKNSLYLQMNSLRDEDTAVYYCASLYSGYDYYYYYGMDVWGQGTTVTVSS
VL: DIVMTQTPLSSPVSLGQPASISCRSSQSLVHSDGNTYLSWLQQRPGQPPRVLIYKISKRFSGVPDRFSGSGAGTDFTLKISRVEAEDVGVYYCMQATQFPFTFGPGTKVDIKR
notes: Human IgG1, kappa; also called human 14A10 mAb; fully human 14A10 mAb
As for B1, the Kd (as a rule, the free concentration of one partner at which half of the binding sites on the other are occupied at equilibrium, for simple one-to-one binding) in [1] amounted to 4.3 nM; in [6], 34 nM; in [9], 4.3 nM. Moreover, the koff (usually a measure of how fast the partners let go of each other) in [1] came out at 0.00014 s⁻¹; in [6] it was 0.0011 s⁻¹; in assay [9] it was 0.00014 s⁻¹. The kon – broadly, a measure of how fast the partners come together – in [1] is 33000 M⁻¹ s⁻¹; in assay [6], 31000 M⁻¹ s⁻¹; in assay [9], 33000 M⁻¹ s⁻¹. Besides, the EC50 – broadly, the midpoint of the concentration-response curve – with human L1CAM on cells [2] worked out at 2.5 nM; with human L1CAM on cells [4], 7.1 nM; with human L1CAM on cells [7] it was 7.1 nM; with human L1CAM on cells [8], 2 nM. The “fold difference of KD against human L1CAM” value in assay [3] is at most 3.3 fold. The binding result in assay [5] is reported as “no binding (tested: 1 µM)”.

For the origin of these results see patent US20250340636A1 (Memorial Sloan Kettering, published 2025).
